Measured values published in patent US20100190693.

What was measured:
[1] = biological target: GST-TORC2 (aa 161-181) Ser171Ala (UniProt Q53ET0)
[2] = biological target: T1, GST-TORC2 (aa 161-181), wild-type (UniProt Q53ET0)
T1 sequence: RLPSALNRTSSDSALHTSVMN

GST-TORC2 (aa 161-181) Ser171Ala, sequence (Q53ET0 whole entry S171A, looked up, the tested form may be a part): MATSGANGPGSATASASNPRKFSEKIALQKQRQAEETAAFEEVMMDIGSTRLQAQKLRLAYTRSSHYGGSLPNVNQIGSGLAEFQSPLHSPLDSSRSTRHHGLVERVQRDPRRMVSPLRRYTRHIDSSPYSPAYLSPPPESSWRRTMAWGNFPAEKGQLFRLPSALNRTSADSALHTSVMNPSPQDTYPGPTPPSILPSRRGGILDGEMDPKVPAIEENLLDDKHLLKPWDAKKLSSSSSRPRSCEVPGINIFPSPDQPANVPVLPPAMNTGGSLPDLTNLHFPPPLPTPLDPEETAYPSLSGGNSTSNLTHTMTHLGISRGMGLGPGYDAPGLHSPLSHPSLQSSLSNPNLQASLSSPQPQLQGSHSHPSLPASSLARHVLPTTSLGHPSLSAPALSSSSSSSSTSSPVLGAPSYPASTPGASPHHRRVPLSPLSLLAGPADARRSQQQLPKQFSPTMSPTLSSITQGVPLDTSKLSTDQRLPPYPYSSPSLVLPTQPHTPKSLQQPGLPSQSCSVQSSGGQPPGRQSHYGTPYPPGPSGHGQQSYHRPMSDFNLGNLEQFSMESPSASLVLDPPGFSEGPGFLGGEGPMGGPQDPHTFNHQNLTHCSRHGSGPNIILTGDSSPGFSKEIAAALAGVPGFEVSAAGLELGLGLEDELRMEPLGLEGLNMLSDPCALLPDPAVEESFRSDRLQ

“purified AMPK (AMP-activated protein kinase) (Upstate Biotech)” was tested, and the “in vitro kinase assay, 32P incorporation” value [1] was “Activated AMPK phosphorylated wild-type, but not Ser171Ala mutant GST-TORC2 (161-181) peptide in vitro” and the “in vitro kinase assay, 32P incorporation” value [2] was “Activated AMPK phosphorylated wild-type, but not Ser171Ala mutant GST-TORC2 (161-181) peptide in vitro”.
